Measurements: patent US8993719B2, “Methods and compositions related to mutant Kunitz domain I of TFPI-2” (The Regents of the University of California, priority 2005, dated 2015)
Residue numbers refer to the chain shown, from its start. Names and notes keep the numbering of the source. Values joined by “and” are separate entries in the source; they are usually repeats but may differ in a detail not shown here. Equal entries are not always repeated. “Also recorded” adds a separate entry of the source.

B1: Wild type first Kunitz-type proteinase inhibitor domain of human TFPI-2 (KD1) (other)
chain: DAAQEPTGNNAEICLLPLDYGPCRALLLRYYYDRYTQSCRQFLYGGCEGNANNFYTWEACDDACWRIEKVPKV
notes: also called WTKD1; WT KD1
B2: KD1 R15K mutant (R24K in KD1 numbering) (other)
chain: B1 chain with R24K
notes: Made from KD1 by site-directed mutagenesis, with the His tag removed; also called R24K mutant
B3: KD1 R15K/L17R double mutant (R24K/L26R in KD1 numbering) (other)
chain: B1 chain with R24K, L26R
notes: Made from KD1 by site-directed mutagenesis, with the His tag removed
B4: KD1 L17R mutant (L26R in KD1 numbering) (other)
chain: B1 chain with L26R
notes: The His tag was removed; also called KD1 L26R; L26R KD1

Key:
Mouse plasmin [1] = target: Mouse plasmin (mouse, UniProt P20918 98-812, limits assumed); assay: mouse plasmin inhibition assay
Chain of Mouse plasmin (P20918 98-812 limits assumed): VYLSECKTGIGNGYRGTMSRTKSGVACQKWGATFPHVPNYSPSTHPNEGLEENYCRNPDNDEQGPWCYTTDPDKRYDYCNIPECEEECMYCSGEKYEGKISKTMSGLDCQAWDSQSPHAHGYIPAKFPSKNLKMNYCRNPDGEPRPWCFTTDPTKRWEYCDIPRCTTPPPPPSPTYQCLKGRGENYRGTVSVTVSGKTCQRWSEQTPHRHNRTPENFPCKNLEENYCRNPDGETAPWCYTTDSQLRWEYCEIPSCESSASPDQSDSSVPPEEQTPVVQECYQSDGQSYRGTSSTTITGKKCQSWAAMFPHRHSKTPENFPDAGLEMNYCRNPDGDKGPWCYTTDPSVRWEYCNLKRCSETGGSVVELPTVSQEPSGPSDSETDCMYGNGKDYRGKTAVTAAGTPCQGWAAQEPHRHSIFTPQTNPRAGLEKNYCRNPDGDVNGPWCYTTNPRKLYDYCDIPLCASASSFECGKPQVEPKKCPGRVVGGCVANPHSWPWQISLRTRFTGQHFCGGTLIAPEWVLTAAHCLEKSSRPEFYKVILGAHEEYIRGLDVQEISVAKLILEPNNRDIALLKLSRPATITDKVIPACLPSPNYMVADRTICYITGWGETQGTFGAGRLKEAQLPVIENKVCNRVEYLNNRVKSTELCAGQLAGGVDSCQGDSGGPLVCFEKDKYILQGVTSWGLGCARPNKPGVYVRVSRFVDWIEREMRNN

Human plasmin [2] = target: T1, Human plasmin (Homo sapiens, UniProt P00747); assay: Plasmin inhibition assay (residual amidolytic activity, chromogenic substrate S-2251); format: biochemical; conditions: for fold stronger binding to plasmin than WT KD1: relative to WT KD1
T1 construct: purchased Enzyme research laborotories
T1 sequence (P00747 581-810 limits assumed): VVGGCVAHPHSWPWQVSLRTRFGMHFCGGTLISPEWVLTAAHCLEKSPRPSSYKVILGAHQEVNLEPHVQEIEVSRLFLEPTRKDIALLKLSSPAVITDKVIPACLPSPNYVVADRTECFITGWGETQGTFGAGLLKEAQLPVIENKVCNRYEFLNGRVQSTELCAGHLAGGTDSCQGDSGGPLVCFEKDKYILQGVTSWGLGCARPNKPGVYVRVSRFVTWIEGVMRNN
T1 sequence (P00747 97-580 partner limits assumed): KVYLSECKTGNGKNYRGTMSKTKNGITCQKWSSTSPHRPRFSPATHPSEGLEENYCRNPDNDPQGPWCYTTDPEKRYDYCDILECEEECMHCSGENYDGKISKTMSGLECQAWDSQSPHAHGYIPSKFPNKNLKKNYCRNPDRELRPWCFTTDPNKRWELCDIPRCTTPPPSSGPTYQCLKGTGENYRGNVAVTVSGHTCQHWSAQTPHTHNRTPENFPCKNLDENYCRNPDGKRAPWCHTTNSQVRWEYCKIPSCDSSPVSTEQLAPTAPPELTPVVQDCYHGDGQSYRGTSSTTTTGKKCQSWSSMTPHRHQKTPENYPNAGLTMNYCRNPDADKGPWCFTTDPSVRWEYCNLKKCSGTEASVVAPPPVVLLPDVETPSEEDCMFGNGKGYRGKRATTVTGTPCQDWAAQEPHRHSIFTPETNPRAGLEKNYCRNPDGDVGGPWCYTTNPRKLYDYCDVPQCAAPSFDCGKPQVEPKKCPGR
Excerpt: Materials and methods: The chromogenic substrates H-D-Val-Leu-Lys-p-nitroanilide (S-2251) was purchased from DiaPharma Group Inc. (West Chester, Ohio). Human plasmin was purchased from Enzyme research laborotories. Bovine aprotinin (BPTI) was used from Zymogenetics. Escherichia coli strain BL21(DE3)pLys and pET28a expression vector were products of Novagen Inc. (Madison, Wis.). The QuikChange® site-directed mutagenesis kit was obtained from Stratagene (La Jolla, Calif.).
(§1) Plasmin Inhibition Assays. […] The chromogenic substrate S-2251 was then added, and residual amidolytic activity was measured in a Molecular Devices UVmax kinetic microplate reader at different end points (0.5 and 1 hr) and S2251 (0.5 and 1 mM) concentrations. Plasmin inhibitory data were analyzed according to the quadratic binding expression.

mouse plasmin [3] = target: mouse plasmin (Mus musculus, UniProt P20918); assay: Mouse plasmin inhibition; format: biochemical; conditions: 1 μM inhibitor; FIG. 6
Chain of mouse plasmin (P20918 582-812 limits assumed): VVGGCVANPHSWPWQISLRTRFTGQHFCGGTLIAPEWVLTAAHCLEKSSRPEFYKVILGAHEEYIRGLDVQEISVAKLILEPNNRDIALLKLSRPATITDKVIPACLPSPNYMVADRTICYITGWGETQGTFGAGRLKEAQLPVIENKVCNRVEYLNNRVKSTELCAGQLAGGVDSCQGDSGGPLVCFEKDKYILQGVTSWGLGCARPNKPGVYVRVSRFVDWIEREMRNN
Chain of mouse plasmin (P20918 98-581 partner limits assumed): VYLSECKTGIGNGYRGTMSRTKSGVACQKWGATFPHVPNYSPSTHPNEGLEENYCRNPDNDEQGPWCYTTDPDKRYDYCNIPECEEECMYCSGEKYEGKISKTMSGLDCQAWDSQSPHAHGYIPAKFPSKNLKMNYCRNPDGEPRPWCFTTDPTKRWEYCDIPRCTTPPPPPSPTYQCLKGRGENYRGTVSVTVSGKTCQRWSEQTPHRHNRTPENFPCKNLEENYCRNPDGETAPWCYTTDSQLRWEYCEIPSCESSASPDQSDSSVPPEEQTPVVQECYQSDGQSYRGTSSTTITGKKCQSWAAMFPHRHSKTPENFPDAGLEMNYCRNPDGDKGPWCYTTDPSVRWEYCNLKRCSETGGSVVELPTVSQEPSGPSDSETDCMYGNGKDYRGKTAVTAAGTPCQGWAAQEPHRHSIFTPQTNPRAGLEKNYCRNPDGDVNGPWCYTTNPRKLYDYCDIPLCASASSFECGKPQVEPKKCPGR
Excerpt: Both WT KD1 and L26R inhibited mouse plasmin effectively. […] Since both the wild-type and the mutant inhibit mouse plasmin, one can use the mutant to show efficacy in vivo in an animal model of bleeding.

[4] = system: intrinsic pathway of blood coagulation; assay: aPTT (activated partial thromboplastin time) of normal plasma; format: biochemical; conditions: normal human plasma, 5 min at 37° C., FIG. 5
Protocol: Seventy-five microliter of 25 mM CaCl2 prewarmed to 37° C. was then added and the time needed to form the clot through the intrinsic pathway of blood coagulation was noted.
A common procedure to test inhibition of clotting is to examine the aPTT (activated partial thromboplastin time) of normal plasma. In this test, surface activator plus phospholipid was mixed with normal plasma in equal amounts (75 microliter). […] Seventy-five microliter of 25 mM CaCl2 prewarmed to 37° C. was then added and the time needed to form the clot was noted.
In the aPTT system, coagulation is initiated by the activation of factor XII to Factor XIIa by contact phase involving the kallikrein system. Factor XIIa then activates factor XI to factor XIa in the coagulation cascade.

[5] = system: mouse tail vein bleeding model; assay: Mouse tail vein bleeding model; format: in vivo; conditions: intravenously, about 100 microgram/mouse, compared to saline control
Excerpt: A mouse tail vein bleeding model has been described to study the efficacy of a snake plasmin inhibitor (Masci et al. Blood Coagulation and Fibrinolysis 2000, Vol 11, pages 385-393). […] The doses of the plasmin inhibitors used in these experiments were similar to that used during human CPB (cardiopulmonary bypass) surgery, adjusted to the mouse weight. The Animal Ethics Committee of UCLA approved all mice experiments and the dose used in human surgery adjusted to mouse weight was a realistic basis for these initial studies. The serum BUN/Creatinine levels were normal after two days and seven days following administration of the drug.

kallikrein = kallikrein (Homo sapiens, UniProt P03952); conditions: Petersen et al 1996; cited from earlier work
Chain of kallikrein (P03952 391-638 limits assumed): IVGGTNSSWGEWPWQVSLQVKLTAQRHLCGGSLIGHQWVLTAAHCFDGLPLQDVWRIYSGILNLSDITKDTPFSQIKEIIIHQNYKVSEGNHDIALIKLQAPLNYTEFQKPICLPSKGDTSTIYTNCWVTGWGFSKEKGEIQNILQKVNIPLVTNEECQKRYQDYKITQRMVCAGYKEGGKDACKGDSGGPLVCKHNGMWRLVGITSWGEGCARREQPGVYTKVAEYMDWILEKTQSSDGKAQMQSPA
Chain of kallikrein (P03952 20-390 partner limits assumed): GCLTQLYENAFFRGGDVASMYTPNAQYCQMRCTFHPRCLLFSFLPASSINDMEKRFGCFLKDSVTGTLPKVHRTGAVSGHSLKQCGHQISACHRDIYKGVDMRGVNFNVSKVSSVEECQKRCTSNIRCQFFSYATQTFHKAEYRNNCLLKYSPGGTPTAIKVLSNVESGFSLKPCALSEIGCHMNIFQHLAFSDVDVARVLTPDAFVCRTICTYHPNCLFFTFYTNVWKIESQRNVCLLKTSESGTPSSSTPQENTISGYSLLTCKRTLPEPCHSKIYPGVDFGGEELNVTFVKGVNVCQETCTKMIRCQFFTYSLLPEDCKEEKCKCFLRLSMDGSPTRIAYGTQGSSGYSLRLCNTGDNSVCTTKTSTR

factor XIa = factor XIa (Homo sapiens, UniProt P03951); conditions: Petersen et al 1996; cited from earlier work
Chain of factor XIa (P03951 388-625 limits assumed): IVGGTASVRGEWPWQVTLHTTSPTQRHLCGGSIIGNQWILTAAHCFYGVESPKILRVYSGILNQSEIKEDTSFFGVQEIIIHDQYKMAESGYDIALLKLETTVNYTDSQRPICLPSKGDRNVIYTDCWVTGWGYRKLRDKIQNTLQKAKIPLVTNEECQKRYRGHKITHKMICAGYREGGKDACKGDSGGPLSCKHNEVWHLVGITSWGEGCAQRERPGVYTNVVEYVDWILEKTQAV
Chain of factor XIa (P03951 19-387 partner limits assumed): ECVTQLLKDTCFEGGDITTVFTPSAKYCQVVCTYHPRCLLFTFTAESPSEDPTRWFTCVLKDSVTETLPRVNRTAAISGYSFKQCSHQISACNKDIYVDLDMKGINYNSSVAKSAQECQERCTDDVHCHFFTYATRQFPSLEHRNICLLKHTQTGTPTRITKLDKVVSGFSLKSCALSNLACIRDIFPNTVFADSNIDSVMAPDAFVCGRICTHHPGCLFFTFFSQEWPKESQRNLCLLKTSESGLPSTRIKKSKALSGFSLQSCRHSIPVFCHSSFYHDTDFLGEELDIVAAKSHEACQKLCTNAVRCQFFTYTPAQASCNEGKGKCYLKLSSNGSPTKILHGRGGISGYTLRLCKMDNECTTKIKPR

Human plasmin [6] = target: T2, Human plasmin (human, UniProt P00747 97-810, limits assumed); assay: plasmin inhibition assay, residual amidolytic activity on S-2251
T2 construct: Bought enzyme
T2 sequence (P00747 97-810 limits assumed): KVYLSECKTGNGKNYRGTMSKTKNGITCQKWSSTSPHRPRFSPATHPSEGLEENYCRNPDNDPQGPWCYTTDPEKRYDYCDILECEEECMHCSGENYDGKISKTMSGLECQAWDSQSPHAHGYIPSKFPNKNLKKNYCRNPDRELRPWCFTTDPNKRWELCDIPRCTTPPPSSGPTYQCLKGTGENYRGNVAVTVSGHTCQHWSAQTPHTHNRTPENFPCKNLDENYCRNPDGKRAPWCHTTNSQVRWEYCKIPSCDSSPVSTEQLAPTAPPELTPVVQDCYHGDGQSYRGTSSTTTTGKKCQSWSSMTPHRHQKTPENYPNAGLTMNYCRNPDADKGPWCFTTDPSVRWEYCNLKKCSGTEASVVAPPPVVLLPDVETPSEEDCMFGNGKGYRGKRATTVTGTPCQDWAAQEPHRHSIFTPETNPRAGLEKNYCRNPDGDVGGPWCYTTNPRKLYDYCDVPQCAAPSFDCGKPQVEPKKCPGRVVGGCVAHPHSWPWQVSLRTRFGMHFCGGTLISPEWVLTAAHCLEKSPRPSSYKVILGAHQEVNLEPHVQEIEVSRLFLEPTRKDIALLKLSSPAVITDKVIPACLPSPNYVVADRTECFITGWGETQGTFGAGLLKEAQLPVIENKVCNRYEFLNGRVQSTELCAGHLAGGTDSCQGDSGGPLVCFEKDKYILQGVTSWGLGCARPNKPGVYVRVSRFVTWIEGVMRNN
Protocol: as §1
In control experiments, it was first studied if there was any substrate-induced displacement of bound inhibitor by increasing substrate concentrations.

Human plasmin [7] = target: T2, Human plasmin; assay: plasmin inhibition assay, residual amidolytic activity on S-2251, quadratic binding fit
Protocol: as §1
(§2) The incubation time was 1 hr at 37° C. and substrate concentration was 1 mM for the remaining activity measurements.

Human plasmin [8] = target: T2, Human plasmin; assay: plasmin inhibition assay, 1 hr at 37° C., 1 mM S-2251
Protocol: as §1, §2

Molecule | Kd (Mouse plasmin [1]) [nM] | substrate-induced displacement of bound inhibitor (Human plasmin [2]; increasing S-2251 concentration (0.5 and 1 mM)) | inhibition of mouse plasmin at 1 μM (mouse plasmin [3]) | inhibition of intrinsic pathway of coagulation (prolongation of aPTT clotting time) ([4]; listed as KD1 WT) | reduction in blood loss [5] | inhibition of kallikrein (kallikrein) | inhibition of factor XIa (factor XIa) | Ki (Human plasmin [6]) [nM] | Kd (Human plasmin [7]) [nM] | fold stronger binding to plasmin than WT KD1 (Human plasmin [2]) | Kd (Human plasmin [8]) | fold difference of Kd against WT KD1 (Human plasmin [8]) [fold] | fold stronger binding than WT KD1 (Human plasmin [6]) [fold] | fold stronger binding than the R15K mutant (Human plasmin [6]) [fold] | fold stronger binding to plasmin than WT KD1 (Human plasmin [2]; listed as L17R) | inhibition of intrinsic pathway of coagulation (prolongation of aPTT clotting time) [4] | inhibition of intrinsic pathway of coagulation (prolongation of aPTT clotting time) ([4]; listed as L26R KD1)
B1 | ~80 | apparently no displacement of bound inhibitor; also recorded: not any significant substrate induced displacement of inhibitor | Complete inhibition | prolongation of the aPTT; also recorded: inhibit the intrinsic pathway of coagulation | 67-70% | inhibits both kallikrein and factor XIa | inhibits both kallikrein and factor XIa | 22 | 22 | – | – | – | – | – | – | – | –
B2 | – | – | – | – | – | – | – | 10 | – | two-fold different | 9 to 11 nM and 10 nM | 2 | – | – | – | – | –
B3 | – | – | – | – | – | – | – | 3 | – | – | 3 nM | – | 7 | ~2 | – | – | –
B4 | ~80 | – | Complete inhibition | – | 67-70% | – | – | 6 | – | – | – | – | ~4 | – | approximately 4 fold | no inhibition (prolongation) of aPTT; also recorded: loses activity as an anticoagulant; also recorded: ineffective | no effect on clotting
